Measurements reported in IntAct's records for PubMed 18809921.

B1: CCAAT/enhancer-binding protein beta (Homo sapiens), P17676 (parent)
chain: MQRLVAWDPACLPLPPPPPAFKSMEVANFYYEADCLAAAYGGKAAPAAPPAARPGPRPPAGELGSIGDHERAIDFSPYLEPLGAPQAPAPATATDTFEAAPPAPAPAPASSGQHHDFLSDLFSDDYGGKNCKKPAEYGYVSLGRLGAAKGALHPGCFAPLHPPPPPPPPPAELKAEPGFEPADCKRKEEAGAPGGGAGMAAGFPYALRAYLGYQAVPSGSSGSLSTSSSSSPPGTPSPADAKAPPTACYAGAAPAPSQVKSKAKKTVDKHSDEYKIRRERNNIAVRKSRDKAKMRNLETQHKVLELTAENERLQKKVEQLSRELSTLRNLFKQLPEPLLASSGHC

Variants of: B1
Settings: with abc3g_human APOBEC3G

Row | Variant | effect of a mutation on the interaction
1 | S288A | decreasing interaction
